Data on 7 molecules can be found in PMC10620760, “Phosphorylation controls spatial and temporal activities of motor‐PRC1 complexes to complete mitosis” (The EMBO Journal, 2023).

Sequences and labels used below:
T1: PRC1_(1–168) (human, UniProt O43663 1-168)
T1 chain: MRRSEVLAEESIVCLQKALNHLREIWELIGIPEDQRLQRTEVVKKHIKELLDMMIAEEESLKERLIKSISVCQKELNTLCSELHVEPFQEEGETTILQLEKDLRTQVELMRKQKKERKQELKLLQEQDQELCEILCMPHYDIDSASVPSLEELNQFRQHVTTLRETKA

T2: GFP‐PRC1 (human, UniProt O43663 1-620)
T2 construct: protein regulator of cytokinesis 1 (PRC1), human; Purified recombinant GFP-PRC1 of the TIRF assay; probably full length
T2 sequence (looked up): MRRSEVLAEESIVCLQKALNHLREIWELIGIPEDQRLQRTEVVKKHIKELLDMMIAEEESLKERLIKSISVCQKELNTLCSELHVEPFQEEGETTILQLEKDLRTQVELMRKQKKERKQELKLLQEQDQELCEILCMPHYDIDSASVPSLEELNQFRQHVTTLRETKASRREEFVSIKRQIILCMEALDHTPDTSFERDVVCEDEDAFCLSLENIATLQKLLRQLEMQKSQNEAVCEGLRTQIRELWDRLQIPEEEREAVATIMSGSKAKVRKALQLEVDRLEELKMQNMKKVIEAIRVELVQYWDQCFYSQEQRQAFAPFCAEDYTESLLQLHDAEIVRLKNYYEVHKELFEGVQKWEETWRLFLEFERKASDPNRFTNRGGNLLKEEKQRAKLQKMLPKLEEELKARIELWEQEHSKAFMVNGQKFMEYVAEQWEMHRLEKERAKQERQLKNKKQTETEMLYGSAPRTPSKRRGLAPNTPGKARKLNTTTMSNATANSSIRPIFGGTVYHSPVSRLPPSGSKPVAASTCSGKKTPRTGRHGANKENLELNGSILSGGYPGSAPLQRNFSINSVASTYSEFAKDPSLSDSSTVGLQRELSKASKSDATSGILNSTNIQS

B1: PRC1_(1–168) (domain or fragment, human, UniProt O43663 1-168, looked up)
chain: T1 chain
notes: Dimer by SEC-MALS (52 ± 2.5 kDa measured); source: E. coli BL21-CodonPlus (DE3)-RIL, purified (HisTrap, SEC)
B2: GST‐CENP‐E_(2605–2701) 2SD (domain or fragment, human, UniProt Q02224-1 2605-2701, looked up)
chain: SPKSPKVTGTASKKKQITPSQCKERNLQDPVPKEDPKSCFFDSRSKSLPDPHPVRYFDNSSLGLCPEVQNAGAESVDSQPGPWHASSGKDVPECKTQ
notes: also called pAG96; source: E. coli BL21-CodonPlus (DE3)-RIL, purified; not shown: GST, N-terminal, kept
B3: PRC1_(1–168) MEE (domain or fragment, human, UniProt O43663 1-168, looked up)
chain: T1 chain with M54A, E57A, E58A
notes: Vector pET Duet 1; dimer by SEC-MALS; source: E. coli BL21-CodonPlus (DE3)-RIL, purified
B4: GST‐Kif4A_(1133–1232) (domain or fragment, human, UniProt O95239 1133-1232, looked up)
chain: TQDSEGSFKLEDPTEVTPGLSFFNPVCATPNSKILKEMCDVEQVLSKKTPPAPSPFDLPELKHVATEYQENKAPGKKKKRALASNTSFFSGCSPIEEEAH
notes: also called pAG127; source: E. coli BL21-CodonPlus (DE3)-RIL, purified
B5: 647GST‐CENP‐E_(2639–2671) (domain or fragment, human, UniProt Q02224-1 2639-2671, looked up)
chain: SPKSCFFDSRSKSLPSPHPVRYFDNSSLGLCPE
modifications: cysteine pairing not given here; also: Alexa Fluor 647 label, site not given here (degree of labelling ~1:3), GST fusion
notes: also called pAG118

Residue numbers refer to the chain shown, from its start. Ends that are not written are not given here.

The target in series [1] is GST‐CENP‐E_(2605–2701) 6SD (human, UniProt Q02224-1 2605-2701, S2639D | S2647D | S2649D (printed S2469D in Table 1; S2649 in the text) | …). In words: ITC. (Isothermal titration calorimetry measures the heat released or taken up as one component is titrated into another.)
Series [2] deals with the molecule itself. Description: SEC-MALS; 100 μl of 3.6 mg/ml PRC1(1-168) (152 μM) or 2.0 mg/ml PRC1(1-168) MEE (84 μM), Superdex-200 Increase 10/300 GL, 20 mM HEPES pH 7.4, 300 mM NaCl, 1 mM EDTA, 22°C. Background: In gel filtration, larger molecules generally elute earlier.
The target in series [3] is B1. In words: ITC; PRC1(1-168) titrated into the CENP-E construct or peptide in the cell, 25°C, 20 mM HEPES pH 7.5, 150 mM NaCl, 0.005% Tween-20, 0.5 mM TCEP; one set of sites; concentrations calculated for monomers. Conditions: both partners purified.
For series [4], the target named is B1. In words: SEC; proteins mixed at equimolar (1:1) ratio, Superdex 200 Increase 10/300 GL, 20 mM HEPES pH 7.5, 300 mM NaCl, 1 mM EDTA, 1 mM DTT; fractions on Coomassie-stained SDS-PAGE. Conditions: both partners purified.
Series [5] concerns the target T1, PRC1_(1–168). Description: ITC.
The target of the next series is T2, GFP‐PRC1. Description: TIRF microscopy, recruitment to microtubules in vitro; GMPCPP-stabilized rhodamine microtubules mixed with 647GST-CENP-E(2639-2671) alone, GFP-PRC1 alone or both, held on coverslips by anti-tubulin antibodies; 80 mM PIPES pH 6.9, 5 mM MgCl2, 1 mM DTT, oxygen scavenger. Conditions: both partners purified.

On to B1, for which the Kd in series [1] is greater than 100 µM. In addition, the “stoichiometry N” value in series [2] was 2.

Take B2: in the series with PRC1_(1–168) [3], the Kd is 2.4 µM.

B3: the “stoichiometry N” value in series [2] came to 2.

Consider B4, for which the binding result in the series with PRC1_(1–168) [4] is listed as “binds”.

In the case of PKSCFFDSRSK [CENP‐E peptide 1], binding with PRC1_(1–168) [5] was put at a Kd of 41.1 µM.

On to B5, for which, in the series with GFP‐PRC1, the binding result is listed as “binds”.

Molecule PVRYFDNSSLG [CENP‐E peptide 2] yielded a Kd in the series with PRC1_(1–168) [5] of 64 µM.

The Kd is the constant that tells how readily two partners part at equilibrium. One may read the stoichiometry N as the number of molecules, sites or subunits per partner or assembly.
